Measurements published in patent publication US20220144895A1, “DE NOVO DESIGN OF TUNABLE PH-DRIVEN CONFORMATIONAL SWITCHES” (University of Washington, priority 2019, published 2022).
Entries after “also recorded” stand apart in the source; their conditions may differ.

How the values were obtained:
[1] = Circular dichroism: GdmCl chemical denaturation and temperature melts; settings: for folding stability by GdmCl denaturation: CD at 222 nm, PBS pH 7.4 or Na2PO4-Citrate at lower pH
Text: For low-pH experiments involving circular dichroism (CD), small-angle X-ray scattering (SAXS), and size exclusion chromatography (SEC), Na2PO4-Citrate buffer was used to ensure that a single buffer system could be used that was stable over the entire pH range to be tested. Buffers were made using established ratios of stock solutions of 0.2 M Na2PO4 and 0.1 M Citrate; final pH was adjusted using hydrochloric acid (HCl) or sodium hydroxide (NaOH) if needed.
CD wavelength scans (260 to 195 nm) and temperature melts (25 to 95° C.) were measured using a JASCO™ J-1500 or an AVIV™ model 420 CD spectrometer. Temperature melts monitored absorption signal at 222 nm and were carried out at a heating rate of 4° C./min; protein samples were at 0.25 mg/mL in either phosphate buffered saline (PBS) pH 7.4 or Na2PO4-Citrate at indicated pH values (see Buffers systems for varying pH). Guanidinium chloride (GdmCl) titrations were all performed on an AVIV 420 spectrometer with an automated titration apparatus using either PBS pH 7.4 or Na2PO4-Citrate buffers at indicated pH at room temperature, monitoring helical signal at 222 nm, using a protein concentration of 0.025 mg/mL in a 1 cm cuvette with stir bar. Each titration consisted of at least 30 evenly distributed concentration points with one minute mixing time for each step. Titrant solution consisted of the same concentration of protein in the same buffer system plus GdmCl; GdmCl concentration of starting solutions was determined by reactive index.

[2] = Native mass spectrometry of pH-induced changes in oligomeric state; type: physicochemical; settings: for pH response of oligomeric state (pH-induced disassembly): pH ~7 to ~3
Outline: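 Protein in 200 mM ammonium acetate/50 mM triethylammonium acetate, acid-adjusted to each target pH, was held 30 min on ice and sprayed by nESI at 5 μM monomer or 1.67 μM trimer. Oligomer fractions came from integrated charge-state series, then fitted by nonlinear least squares.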

[3] = Fluorescence dequenching liposome leakage (liposome disruption) assay; type: biochemical; settings: for pH-dependent liposome disruption: SRB leakage
Method: Liposomes composed of DOPC (1,2-dioleoyl-sn-glycero-3-phosphocholine), DOPC with 25% cholesterol (molar ratio to DOPC), 3:1 DOPC:POPS (1-palmitoyl-2-oleoyl-sn-glycero-3-phospho-L-serine), and 3:1 DOPC:POPS with 25% cholesterol were prepared identically to a final concentration of 5 mM total lipid as previously described (32); lipids from Avanti Polar Lipids. Lipids solubilized in chloroform were dried under nitrogen gas and stored under vacuum for a minimum of 2 hours to remove residual solvent. The dried lipid film was the resuspended in Tris buffer (10 mM Tris, 150 mM NaCl, and 0.02% NaN3 pH 8.0) containing 25 mM Sulforhodamine B (SRB) fluorophore (Sigma) and subjected to 10 sequential freeze thaw cycles in liquid nitrogen. Liposomes were extruded 29 times through 100 nm pore size polycarbonate filters (Avanti Polar Lipids) and purified from free fluorophore using a PD-10 gel filtration column (GE Healthcare) into storage buffer (10 mM Tris, 150 mM NaCl, and 0.02% NaN3 pH 8.0). Liposome size and homogeneity was analyzed by dynamic light scattering (DLS) using a Dynapro Nanostar™ DLS (Wyatt Technologies). On average liposome diameter ranged from 120-130 nm with low polydispersity. Liposomes were stored at 4° C. and used within 5 days of preparation.
Liposome disruption and content leakage was analyzed by fluorescence spectroscopy as previously described (32). […] The solution was rapidly acidified to the target pH by addition of a fixed volume of acidification buffer and incubated for 20 minutes. […] SRB fluorescence is independent of pH within the ranges used here. Finally. Triton X-100 (Sigma) was added to a final concentration of 1% to fully disrupt liposomes. Liposome disruption as indicated by content leakage and SRB dequenching was normalized using the formula [Fω−F(0)]/[F(Max)−F(0)] where F(0) is the average fluorescence intensity before acidification and F(Max) is the average fluorescence intensity ater addition of Triton X-100. All measurements were collected on a Varian Cary Eclipse spectrophotometer using an excitation/emission pairing of […] and 2.5 nm slit widths at 24° C. Any data plotted together was collected using the sum batch of liposomes.

U2-OS cells = assay: Colocalization of +36GFP fusions with lysosomal membrane (confocal microscopy); type: cell-based; settings: 5 μM, 1 hr
Method: U-2 OS (ATCC) cells were cultured in DMEM supplemented with 10% (v/v) inactivated FBS (Corning), 2 mM glutamine, penicillin (100 IU/mL), and streptomycin (100 μg/mL) at 37° C. and 5% CO2. The glass-bottom coverslip chambers were pre-coated with 500 μg/mL of Matrigel (Corning). Transfection of LAMP1-HaloTagTM was performed using Lonza Nucleofector system according to the manufacturer's specifications. After overnight of recovery and expression, the cells expressing LAMP1-HaloTagTM were labeled with 100 nM JF646-HTL for 30 minutes and washed three times with pre-warmed DMEM medium. The final concentration of 5 μM+36GFP fusion proteins was incubated with the LAMP1-HaloTagTM expressing U-2 OS cells on a pre-coated coverslip for 1 hr. Cells were fixed with 4% paraformaldehyde for 20 min at room temperature (RT) and quenched/rinsed with PBS supplemented with 30 mM glycine. Then, the coverslips were mounted on FluoroSaveTM (Millipore). For pH measurement of the lysosome, LysoSensorTM Yellow/Blue DND-160 was incubated at 1 mg/mL overnight and washed twice prior to imaging (54). The final concentration of 5 μM protein was incubated with the LAMP1-HaloTag expressing U2-OS cells that were loaded with 1 mg/mL LysoSensorTM Yellow/Blue DND-160 for 1 hr. In separate chambers, LysoSensorTM Yellow/Blue DND-160 loaded cells were incubated with bafilomycin A1 (1 μM) and chloroquine (50 μM) for 1 hr as a control. For fixed cell confocal microscopy, a customized Nikon TiE inverted scope outfitted with a Yokogawa spinning-disk scan head (#CSU-X1) along with an Andor iXonTM EM-CCD camera (DU-897) with […] exposure time was used to collect 3D images using an SR Apo TIRF 100×1.49 oil-immersion objective. […] coefficients were calculated in 3D with JF646 signal (LAMP-HaloTag) and +36GFP signal (corresponding proteins) using Imaris software with thresholding. Zeiss 880 equipped with AiryScanTM was also used to obtain high resolution images using a Plan-Apochromatic 63×/1.4 oil DIC objective.

[4] = 2.5 μM protein with respect to monomer

B1: pRO-2: designed pH-responsive homotrimer, SEQ ID NO: 1-2 (protein)
chain 1: MGSHHHHHHGSGSENLYFQGSEYEIRKALEELKAATAELKRATASLRAITEELKKNPSEDALVEHNRAIVEHNAIIVEHNRIIAAVLELIVRAIK
chain 2: SEYEIRKALEELKAATAELKRATASLRAITEELKKNPSEDALVEHNRAIVEHNAIIVEHNRIIAAVLELIVRAIK
[1]; 10 mM EDTA, PBS pH 7.4
  effect of EDTA on helical fold or thermostability: no effect on the helical fold or thermostability
[1]
  folding stability by GdmCl denaturation: decreased folding stability at low pH; also recorded: strongly pH dependent
[2]; native MS
  pH response of oligomeric state (pH-induced disassembly): predominantly monomeric at pH 4
[2]; pH lowered with acetic acid, then raised by ammonia or buffer exchange
  reversibility of disassembly: re-association of monomers into trimer
[3]; [4]
  highest pH with liposome disruption: ≤ 6 pH
  pH of maximal liposome disruption activity: ~5 pH
  pH-dependent liposome disruption: disrupts liposomes in a pH-dependent manner
[3]; pH 5.0, DOPC, POPS, cholesterol mixtures
  disruption of liposomes with more native-like lipid compositions: caused pH-dependent disruption of liposomes with more native-like lipid compositions
U2-OS cells
  colocalization with lysosomal membranes: colocalize with lysosomal membranes and are not degraded

B2: pRO-2 I56V: pRO-2 mutant, SEQ ID NO: 17-18 (protein)
chain 1: MGSHHHHHHGSGSENLYFQGSEYEIRKALEELKAATAELKRATASLRAITEELKKNPSEDALVEHNRAIVEHNAIVVEHNRIIAAVLELIVRAIK
chain 2: GSEYEIRKALEELKAATAELKRATASLRAITEELKKNPSEDALVEHNRAIVEHNAIVVEHNRIIAAVLELIVRAIK
[1]
  folding stability by GdmCl denaturation: decreases stability
[2]; native MS at different pH values
  cooperativity of the pH-induced transition: Neither of the mutations substantially affect the cooperativity
[2]; native MS, evaluated from pH 7 down to pH 3
  pH transition point of disassembly (pH set point, pH0): approximately 5.8 pH
[2]; native MS
  pH response of oligomeric state (pH-induced disassembly): most pH-sensitive
[3]; [4]
  pH-dependent liposome disruption: increased liposome permeabilization activity; also recorded: increased membrane permeabilization activity
U2-OS cells
  colocalization with lysosomal membranes: clearly localized within lysosomes
U2-OS cells; listed as I56V
  colocalization with lysosomal membranes: colocalize with lysosomal membranes and are not degraded; also recorded: most strongly colocalized with the lysosomal membrane
